Test results from patent US20170340735A1 (published 2017).

T1: human TIGIT on the cell surface (human, UniProt Q495A1 22-244)
T1 sequence: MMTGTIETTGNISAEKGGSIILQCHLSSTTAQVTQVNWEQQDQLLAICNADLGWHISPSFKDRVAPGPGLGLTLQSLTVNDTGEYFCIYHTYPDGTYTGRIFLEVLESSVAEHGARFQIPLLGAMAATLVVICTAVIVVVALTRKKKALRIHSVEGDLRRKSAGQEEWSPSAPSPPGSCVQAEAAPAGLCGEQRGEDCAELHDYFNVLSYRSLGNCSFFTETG

T2: human PVRL4-His (human, UniProt Q96NY8 32-349)
T2 construct: also called Nectin-4; not shown: His tag
T2 sequence (looked up): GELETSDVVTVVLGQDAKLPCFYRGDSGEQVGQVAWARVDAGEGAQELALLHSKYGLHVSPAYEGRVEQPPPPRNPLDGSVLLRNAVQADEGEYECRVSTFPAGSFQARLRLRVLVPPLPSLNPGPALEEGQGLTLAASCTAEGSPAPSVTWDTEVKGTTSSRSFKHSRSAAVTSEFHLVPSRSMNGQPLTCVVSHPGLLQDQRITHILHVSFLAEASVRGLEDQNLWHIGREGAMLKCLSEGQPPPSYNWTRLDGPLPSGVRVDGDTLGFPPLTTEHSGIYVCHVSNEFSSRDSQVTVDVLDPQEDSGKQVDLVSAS

T3: recombinant monomeric human TIGIT-His (human, UniProt Q495A1 22-141)
T3 construct: also called hTIGIT; not shown: His tag
T3 sequence: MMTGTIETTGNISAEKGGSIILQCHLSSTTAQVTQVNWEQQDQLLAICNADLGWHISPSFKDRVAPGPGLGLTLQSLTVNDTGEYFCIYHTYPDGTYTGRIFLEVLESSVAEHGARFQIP


How the values were obtained:
[1] = target: T1, human TIGIT on the cell surface; assay: cell-based or functional assay
human PVRL4-His = target: T2, human PVRL4-His; assay: BLI, antibody on AHC sensor, human PVRL4-His in solution
Description: The BLI analysis was performed at 30° C. using 1× kinetics buffer as assay buffer. AHC sensors were first presoaked in assay buffer for greater than 5 minutes. Antibody (5 μg/mL) was captured on the sensor for 300 seconds. Sensors were then dipped in assay buffer for 120 seconds to establish a baseline before measuring binding to human PVRL4-His protein. Sensors were then dipped into human PVRL4-His (200 nM in assay buffer) for 200 seconds to measure association. Dissociation of PVRL4 was then measured by dipping sensors into assay buffer for 200 seconds. Results were analyzed using Octet® Data Analysis Software Version 8.2.0.7.

[2] = target: T3, recombinant monomeric human TIGIT-His; assay: BLI (ForteBio), IgG on AHQ sensor, 100 nM monomeric antigen, 1:1 model
Description: (§1) Quantitative binding of antibodies to recombinant monomeric human, mouse (SEQ ID NO: 3), cynomolgus monkey TIGIT was measured using biolayer interferometry (BLI) with a FORTEBIO®. […] FORTEBIO affinity measurements were performed by loading IgGs on-line onto AHQ sensors. Sensors were equilibrated off-line in assay buffer for 30 min and then monitored on-line for 60 seconds for baseline establishment. Sensors with loaded IgGs were exposed to a single concentration of antigen (100 nM) for 3 minutes. Afterwards they were transferred to assay buffer for 3 minutes for off-rate measurement. Kinetics were analyzed using the 1:1 binding model.

[3] = target: T4, recombinant monomeric cynomolgus monkey TIGIT-His (cynomolgus monkey); assay: as above
T4 construct: also called Cyno TIGIT His; cTIGIT; not shown: His tag
Description: as §1

[4] = target: T1, human TIGIT on the cell surface; assay: flow cytometry, antibody titrated against labeled PVR-Fc binding to human TIGIT Jurkat cells
Description: (§2) Quantitative ligand blocking studies were conducted by using a cell surface TIGIT binding assay.

[5] = target: T1, human TIGIT on the cell surface; assay: flow cytometry, antibody titrated against labeled PVRL2-Fc binding to human TIGIT Jurkat cells
Description: as §2

[6] = target: T3, recombinant monomeric human TIGIT-His; assay: BLI (Octet QKe), antibody on AHC sensor, several concentrations of human TIGIT-His, 1:1 global fit, average
Description: A strategy of capturing anti-TIGIT antibodies on sensors following association/dissociation of monomeric TIGIT proteins was used to avoid avidity effects in the assay. The BLI analysis was performed at 29° C. using 1× kinetics buffer (ForteBio) as assay buffer. Anti-human IgG Fc capture (AHC) biosensors (ForteBio) were first presoaked in assay buffer for over five minutes. Anti-TIGIT antibody (5 μg/mL) was captured on the sensor for 300 seconds. Sensors were then dipped in assay buffer for 120 seconds to establish a baseline before measuring binding to each TIGIT protein. […] Dissociation of TIGIT was measured by dipping the sensors into assay buffer for 600, 1200, or 1800 seconds, depending on the experiment (600 seconds was only used for mouse TIGIT-His). Agitation at all steps was 1000 rpm.
Kinetic parameters were generated with Octet® Data Analysis Software Version 8.2.0.7 using reference subtraction, dissociation based inter-step correction, 1-to-1 binding model, and global fit (Rₘₐₓ unlinked by sensor).

[7] = target: T3, recombinant monomeric human TIGIT-His; assay: MSD-SET solution equilibrium titration, monomeric antigen
Description: See Estep et al., supra, incorporated by reference in its entirety. Briefly, solution equilibrium titrations (SET) were performed in PBS+0.1% IgG-Free BSA (PBSF) with antigen (TIGIT monomer) held constant at 10-100 pM and incubated with 3- to 5-fold serial dilutions of Fab or mAbs starting at 10 pM-10 nM. Antibodies (20 nM in PBS) were coated onto standard bind MSD-ECL plates overnight at 4° C. or at room temperature for 30 min. Plates were then blocked by BSA for 30 min with shaking at 700 rpm, followed by three washes with wash buffer (PBSF+0.05% Tween 20). SET samples were applied and incubated on the plates for 150s with shaking at 700 rpm followed by one wash. Antigen captured on a plate was detected with 250 ng/mL sulfotag-labeled streptavidin in PBSF by incubation on the plate for 3 min. The plates were washed three times with wash buffer and then read on the MSD Sector Imager 2400 instrument using 1× Read Buffer T with surfactant. The percent free antigen was plotted as a function of titrated antibody in Prism and fit to a quadratic equation to extract the KD. To improve throughput, liquid handling robots were used throughout MSD-SET experiments, including SET sample preparation.

T4 sequence (chain, as listed by the source limits assumed): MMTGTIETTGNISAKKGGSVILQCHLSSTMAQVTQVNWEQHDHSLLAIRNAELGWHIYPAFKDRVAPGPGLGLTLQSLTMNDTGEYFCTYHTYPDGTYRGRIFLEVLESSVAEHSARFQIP

| Binder | Average EC50, IL-2 production, human TIGIT Jurkat/anti-CD3 HT-1080 co-culture assay [1] [nM] | binding result (human PVRL4-His) | Kd [2] [nM] | Kd [3] [nM] | IC50 [4] [nM] | IC50 [5] [nM] | Kd [6] [nM] | koff [6] [s⁻¹] | kon [6] [M⁻¹ s⁻¹] | Kd [7] [nM] |
| --- | --- | --- | --- | --- | --- | --- | --- | --- | --- | --- |
| SEC1 (format not stated) (antibody, V domains shown) VH: EVQLVESGGGLTQPGKSLKLSCEASGFTFSSFTMHWVRQSPGKGLEWVAFIRSGSGIVFYADAVRGRFTISRDNAKNLLFLQMNDLKSEDTAMYYCARRPLGHNTFDSWGQGTLVTVSS VL: DIVMTQSPSSLAVSPGEKVTMTCKSSQSLYYSGVKENLLAWYQQKPGQSPKLLIYYASIRFTGVPDRFTGSGSGTDYTLTITSVQAEDMGQYFCQQGINNPLTFGDGTKLEIK | 8.46 | – | – | – | – | – | – | – | – | – |
| MAB18-IgG4 (antibody, V domains shown) VH: QVQLVQSGAEVKKPGASVKVSCKASGYTFPAYYMHWVRQAPGQGLEWMGIINPSLGLTSYARKFQGRVTMTRDTSTSTVYMELSSLRSEDTAVYYCARGGRTTWIGAFDIWGQGTMVTVSS VL: EIVMTQSPATLSVSPGERATLSCRASQSVSSNLAWYQQKPGQAPRLLIYGASTRATGIPARFSGSGSGTEFTLTISSLQSEDFAVYYCQQYVVWPPLTFGGGTKVEIKR | 0.25 | no binding (tested: 200 nM) | 0.448 | 72 | 1.8 | 1.9 | 0.81 | 0.00059 | 750000 | – |
| MAB17-IgG4 (antibody, V domains shown) VH: QVQLVQSGAEVKKPGASVKVSCKASGYTFPAYYIHWVRQAPGQGLEWMGIINPSLGLTSYARKFQGRVTMTRDTSTSTVYMELSSLRSEDTAVYYCARGGRTTWIGALDIWGQGTMVTVSS VL: EIVMTQSPATLSVSPGERATLSCRASQSVSSNLAWYQQKPGQAPRLLIYGASTRATGIPARFSGSGSGTEFTLTISSLQSEDFAVYYCQQYVVWPPLTFGGGTKVEIKR | 0.13 | no binding (tested: 200 nM) | 0.429 | 110 | 2.6 | 1.9 | – | – | – | 0.041 |
| MAB13-IgG4 (antibody, V domains shown) VH: QVQLVQSGAEVKKPGASVKVSCKASGYTFGNYYMHWVRQAPGQGLEWMGIINPSLGLTSYAQKFQGRVTMTRDTSTSTVYMELSSLRSEDTAVYYCARGGRTTWIGAFDIWGQGTMVTVSS VL: EIVMTQSPATLSVSPGERATLSCRASQSVSSNLAWYQQKPGQAPRLLIYGASTRATGIPARFSGSGSGTEFTLTISSLQSEDFAVYYCQQYVVWPPLTFGGGTKVEIKR | 1.4 | no binding (tested: 200 nM) | 1.44 | – | 2.1 | 1.8 | – | – | – | 0.4 |
| MAB14-IgG4 (antibody, V domains shown) VH: QVQLVQSGAEVKKPGASVKVSCKASGYTFPAYYMHWVRQAPGQGLEWMGIINPSLGLTSYAQKFQGRVTMTRDTSTSTVYMELSSLRSEDTAVYYCARGGRTTWIGAFDIWGQGTMVTVSS VL: EIVMTQSPATLSVSPGERATLSCRASQSVSSNLAWYQQKPGQAPRLLIYGASTRATGIPARFSGSGSGTEFTLTISSLQSEDFAVYYCQQYVVWPPLTFGGGTKVEIKR | 0.71 | no binding (tested: 200 nM) | 1.23 | – | 2.6 | 1.6 | – | – | – | 0.38 |
| MAB19-IgG4 (antibody, V domains shown) VH: QVQLVQSGAEVKKPGASVKVSCKASGYTFTSHYMGWVRQAPGQGLEWMGVINPSMGATSYAQKFQGRVTMTRDTSTSTVYMELSSLRSEDTAVYYCARLHVSGSYYPAYLDYWGQGTMVTVSS VL: EIVMTQSPATLSVSPGERATLSCRASQSVSSNLAWYQQKPGQAPRHLIYGASTRATGIPARFSGSGSGTEFTLTISSLQSEDFAVYYCQQYIVFPWTFGGGTKVEIKR | 0.2 | no binding (tested: 200 nM) | – | – | 6.4 | 2 | – | – | – | – |
| MAB20-IgG4 (antibody, V domains shown) VH: QVQLVQSGAEVKKPGASVKVSCKASGYTFTSHYMGWVRQAPGQGLEWVGIINPSMGATSYAQKFQGRVTMTRDTSTSTVYMELSSLRSEDTAVYYCARLHVSGSYYPAYLDYWGQGTMVTVSS VL: EIVMTQSPATLSVSPGERATLSCRASQSVSSNLAWYQQKPGQAPRHLIYGASTRATGIPARFSGSGSGTEFTLTISSLQSEDFAVYYCQQYIVFPWTFGGGTKVEIKR | 0.68 | no binding (tested: 200 nM) | – | – | 2.3 | 1.9 | 0.46 | 0.00038 | 890000 | 0.03 |
| MAB21-IgG4 (antibody, V domains shown) VH: QVQLVQSGAEVKKPGASVKVSCKASGYTFTSHYMGWVRQAPGQGLEWMGIINPSMGATSYTQKFRGRVTMTRDTSTSTVYMELSSLRSEDTAVYYCARLHVSGSYYPAYLDYWGQGTMVTVSS VL: EIVMTQSPATLSVSPGERATLSCRASQSVSSNLAWYQQKPGQAPRHLIYGASTRATGIPARFSGSGSGTEFTLTISSLQSEDFAVYYCQQYIVFPWTFGGGTKVEIKR | 0.61 | no binding (tested: 200 nM) | – | – | 1 | 0.8 | 0.36 | 0.0005 | 1.4e+06 | 0.08 |
